Reference: patent publication US20140256918A1 (published 2014)
One block for each molecule: values may come before it.

How the values were obtained:
[1] = target: CD52 displayed on virus-like particles (CD52 VLP) (UniProt P31358); assay: SPR (Biacore), CD52 VLP captured by Campath and crosslinked on C1 chip, mAb injected
[2] = target: CD52 displayed on virus-like particles (CD52 VLP) (UniProt P31358); assay: SPR (Biacore), CD52 VLP captured by Campath and crosslinked on C1 chip, mAb injected; second curve
[3] = target: biotinylated N-terminal hCXCR5 peptide (human); assay: SPR (Biacore), reversed format, biotinylated peptide on SA chip at 20 RU; mean
[4] = target: biotinylated N-terminal hCXCR5 peptide (human); assay: SPR (Biacore), reversed format, biotinylated peptide on SA chip at 100 RU; mean
[5] = target: hCXCR5 N-terminal peptide (human); assay: SPR (Biacore), conventional format: mAb captured by anti-mouse antibody on CM5 chip, peptide injected; mean
[6] = target: biotinylated N-terminal hCXCR5 peptide (human); assay: SPR (Biacore), reversed format, biotinylated peptide on SA chip at 5 RU; mean
[7] = target: biotinylated N-terminal hCXCR5 peptide (human); assay: SPR (Biacore), reversed format: biotinylated peptide on SA chip, mAb injected; mean
[8] = target: C-terminal 6×His-tagged hCXCR5 whole receptor protein (human) (UniProt P32302); assay: SPR (Biacore), whole receptor captured and crosslinked on NTA chip at 300 RU, analyte injected; mean of triplicate
[9] = target: C-terminal 6×His-tagged hCXCR5 whole receptor protein (human) (UniProt P32302); assay: SPR (Biacore), whole receptor captured and crosslinked on NTA chip at 700 RU, analyte injected; mean of triplicate
[10] = target: T1, C-terminal 6×His-tagged hCXCR5 whole receptor protein (human, UniProt P32302 1-372, crosslinked on the chip with NHS/EDC after capture); assay: as above
T1 construct: mature; Purified whole receptor (monomers, dimers and trimers on SDS-PAGE), captured on a Ni-NTA chip and stabilized by limited crosslinking; also called human CXCR5 receptor; 6×His-hCXCR5
T1 sequence: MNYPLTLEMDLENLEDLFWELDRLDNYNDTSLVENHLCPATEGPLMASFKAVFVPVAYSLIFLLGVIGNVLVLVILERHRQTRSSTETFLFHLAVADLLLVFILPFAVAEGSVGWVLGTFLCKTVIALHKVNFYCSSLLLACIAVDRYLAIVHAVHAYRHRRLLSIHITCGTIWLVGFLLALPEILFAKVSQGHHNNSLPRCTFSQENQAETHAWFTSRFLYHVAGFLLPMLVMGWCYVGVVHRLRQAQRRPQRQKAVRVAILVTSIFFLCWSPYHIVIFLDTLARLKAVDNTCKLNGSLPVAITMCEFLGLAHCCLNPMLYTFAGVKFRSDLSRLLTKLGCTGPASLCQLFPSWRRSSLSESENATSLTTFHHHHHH

[11] = target: T1, C-terminal 6×His-tagged hCXCR5 whole …; assay: SPR (Biacore), whole receptor captured and crosslinked on NTA chip at 300 RU, analyte injected; mean of triplicate
Method: For direct capturing by an NTA SPR sensor chip, the purified 6×His-hCXCR5 protein was diluted to 50 ug/ml with HBS—N (from GE) buffer. An NTA reagent kit (GE) was used for chip surface preparation. The flow rate was set to 5 ul/ml and HBS—N was used as the running buffer. […] In order to stabilize native-like structure of the receptor captured on the chip surface, the commonly used amine coupling reagent NHS/EDC was tested at different concentrations as shown in FIGS. 11 and 12.
In order to assess the impact of the avidity effect on this capture and stabilization method, chip surfaces with different receptor densities were prepared.

[12] = target: biotinylated N-terminal hCXCR5 peptide (human); assay: SPR (Biacore), reversed format: biotinylated peptide on SA chip; the reference of the comparison is not named (by Table 2, the other two clones)
[13] = target: biotinylated N-terminal hCXCR5 peptide (human); assay: SPR (Biacore), reversed format, biotinylated peptide on SA chip at 100 RU; mean; affected by avidity and artificial Koff
[14] = target: biotinylated N-terminal hCXCR5 peptide (human); assay: SPR (Biacore), reversed format, biotinylated peptide on SA chip at 100 RU; mean; called artificial, outside the Biacore accuracy limit

Molecule: anti-CD52 mAb (Campath) (antibody)
Kd [1]: 5750 pM
koff [1]: 0.00109 s⁻¹
kon [1]: 189000 M⁻¹ s⁻¹
Kd [2]: 5810 pM
koff [2]: 0.000937 s⁻¹
kon [2]: 161000 M⁻¹ s⁻¹

B2: mouse anti-hCXCR5 mAb clone 16D7 (antibody, V domains shown)
VH: QVQLKESGPGLVAPSQSLSITCTVSGFSLIDYGVNWIRQPPGKGLEWLGVIWGDGTTYYNSALKSRLSIRKDNSQSQVFLKMNSLQTDDTAMYYCARIVYWGQGTLVTVSA
VL: DIVMTQAAPSVAVTPRESVSISCRSSKSLLHSSGKTYLYWFLQRPGQSPQLLIYRMSNLASGVPDRFSGSGSGTAFTLRISRVEAEDVGVYYCMQHLEYPYTFGGGTKLEIK
Kd [3]: 32.5 pM
koff [3]: 2.7e-05 s⁻¹
kon [3]: 832000 M⁻¹ s⁻¹
kon [4]: 1.01e+06 M⁻¹ s⁻¹
Kd [5]: 503 pM
koff [5]: 0.000241 s⁻¹
kon [5]: 480000 M⁻¹ s⁻¹
Kd [10]: 39.6 pM
koff [10]: 1.28e-05 s⁻¹
kon [10]: 318000 M⁻¹ s⁻¹
Kd [6]: 70.2 pM
koff [6]: 4.71e-05 s⁻¹
kon [6]: 681000 M⁻¹ s⁻¹
Kd [7]: 65 pM
koff [7]: 4.59e-05 s⁻¹
kon [7]: 708000 M⁻¹ s⁻¹
fold slower off-rate [12]: > 10 fold
Kd [13]: 0.0974 pM
Kd [11]: 39.9 pM
koff [11]: 9.62e-06 s⁻¹
kon [11]: 240000 M⁻¹ s⁻¹
koff [14]: 9.85e-08 s⁻¹

The remaining lines, values ahead:

Kd [3]: 66.8 pM
koff [3]: 0.000511 s⁻¹
kon [3]: 7.65e+06 M⁻¹ s⁻¹
Kd [4]: 39.4 pM
koff [4]: 0.000256 s⁻¹
kon [4]: 6.5e+06 M⁻¹ s⁻¹
Kd [5]: 656 pM
koff [5]: 0.00027 s⁻¹
kon [5]: 408000 M⁻¹ s⁻¹
Kd [6]: 164 pM
koff [6]: 0.000711 s⁻¹
kon [6]: 4.33e+06 M⁻¹ s⁻¹
Kd [7]: 141 pM
koff [7]: 0.000595 s⁻¹
kon [7]: 4.23e+06 M⁻¹ s⁻¹
Kd [8]: 610 pM
koff [8]: 0.000423 s⁻¹
kon [8]: 694000 M⁻¹ s⁻¹
Kd [9]: 256 pM
koff [9]: 0.000307 s⁻¹
kon [9]: 1.2e+06 M⁻¹ s⁻¹
Molecule: mouse anti-hCXCR5 mAb MAB190 (antibody)

Kd [10]: 891 pM
koff [10]: 0.00553 s⁻¹
kon [10]: 6.25e+06 M⁻¹ s⁻¹
Kd [11]: 1370 pM
koff [11]: 0.00718 s⁻¹
kon [11]: 5.26e+06 M⁻¹ s⁻¹
B1: CXCL13 (ligand, UniProt O43927 23-109, looked up)
chain: VLEVYYTSLRCRCVQESSVFIPRRFIDRIQILPRGNGCPRKEIIVWKKNKSIVCVDPQAEWIQRMMEVLRKRSSSTLPVPVFKRKIP
notes: also called hCXCR5 ligand
